This is an account of results in US9964541B2, “Method and devices for capturing circulating tumor” (THE BOARD OF TRUSTEES OF THE UNIVERSITY OF ILLINOIS, priority 2009, dated 2018).

The test system of the assay is P-selectin antibody. The assay can be described thus: SPR antibody binding to oriented versus randomly immobilized P-selectin. The settings on record: 20 μg/mL P-selectin antibody, 20 μL/min; compared to randomly immobilized P-selectin, comparable amounts immobilized. The procedure: Enhanced controllability of surfaces by covalent immobilization: Previously, we have shown the surfaces with covalently immobilized P-selectin present enhanced functional stability by approximately 10 times, as compared to those with physisorbed P-selectin. The surface stability was assessed using cell-mimicking microspheres as well as live neutrophils. We also developed immobilization chemistries (as shown FIG. 5) on gold coated, […] PEGylated surfaces to employ the flow-based SPR technique that quantitatively analyze the surface functions, offering: 1) easy surface functionalization using thiol chemistries due to the presence of a gold layer and 2) quantitative and real time monitoring of binding events without any modification of analytes. Thus, the SPR technique is useful particularly for determining controllability of density and orientation of P-selectin. The chemistries described in FIG. 5 were developed to achieve non-fouling surfaces and to provide reactive sites for subsequent P-selectin immobilization using oligo(ethylene glycol)-alkanethiols (Prochimia, Poland) on gold coated SPR chips. Briefly, the gold chip surface was cleaned before the subsequent formation of mixed self assembled monolayers (SAMs) by washing with absolute ethanol and drying by nitrogen blowing. […]

B1: oriented P-selectin: P-selectin biotinylated at its single cysteine, immobilized through biotin-streptavidin binding on OEG-biotin SAM (protein, UniProt P16109 42-830, looked up)
P-selectin: WTYHYSTKAYSWNISRKYCQNRYTDLVAIQNKNEIDYLNKVLPYYSSYYWIGIRKNNKTWTWVGTKKALTNEAENWADNEPNNKRNNEDCVEIYIKSPSAPGKWNDEHCLKKKHALCYTASCQDMSCSKQGECLETIGNYTCSCYPGFYGPECEYVRECGELELPQHVLMNCSHPLGNFSFNSQCSFHCTDGYQVNGPSKLECLASGIWTNKPPQCLAAQCPPLKIPERGNMTCLHSAKAFQHQSSCSFSCEEGFALVGPEVVQCTASGVWTAPAPVCKAVQCQHLEAPSEGTMDCVHPLTAFAYGSSCKFECQPGYRVRGLDMLRCIDSGHWSAPLPTCEAISCEPLESPVHGSMDCSPSLRAFQYDTNCSFRCAEGFMLRGADIVRCDNLGQWTAPAPVCQALQCQDLPVPNEARVNCSHPFGAFRYQSVCSFTCNEGLLLVGASVLQCLATGNWNSVPPECQAIPCTPLLSPQNGTMTCVQPLGSSSYKSTCQFICDEGYSLSGPERLDCTRSGRWTDSPPMCEAIKCPELFAPEQGSLDCSDTRGEFNVGSTCHFSCDNGFKLEGPNNVECTTSGRWSATPPTCKGIASLPTPGVQCPALTTPGQGTMYCRHHPGTFGFNTTCYFGCNAGFTLIGDSTLSCRPSGQWTAVTPACRAVKCSELHVNKPIAMNCSNLWGNFSYGSICSFHCLEGQLLNGSAQTACQENGHWSTTVPTCQAGPLTIQEALTYFGGAVASTIGLIMGGTLLALLRKRFRQKDDGKCPLNPHSHLGTYGVFTNAAFDPSP
modifications: biotinylated at cysteine
As for B1, the antibody binding response entry is “significantly greater binding response”.
